Where no end group is shown, it is not given here.

In PMC3858276 (2013) one finds Kd data, which are given here for six molecules.

To fix the notation:
B2: RasaN (N-terminal SH2 domain of Rasa1) without biotin (for MST) (domain or fragment)
chain: WYHGKLDRTIAEERLRQAGKSGSYLIRESDRRPGSFVLSFLSQMNVVNHFRIIAMCGDYYIGGRRFSSLSDLIGYYSHVSCLLKGEKLLYPV
B3: Rasa1b (Rasa1 sequence 174-447) without biotin (for MST) (domain or fragment)
chain: TAPPTNQWYHGKLDRTIAEERLRQAGKSGSYLIRESDRRPGSFVLSFLSQMNVVNHFRIIAMCGDYYIGGRRFSSLSDLIGYYSHVSCLLKGEKLLYPVAPPEPVEDRRRVRAILPYTKVPDTDEISFLKGDMFIVHNELEDGWMWVTNLRTDEQGLIVEDLVEEVGREEDPHEGKIWFHGKISKQEAYNLLMTVGQVCSFLVRPSDNTPGDYSLYFRTNENIQRFKICPTPNNQFMMGGRYYNSIGDIIDHYRKEQIVEGYYLKEPVPMQDQE
B5: SH2D1A without biotin (for MST) (natural protein)
chain: MDAVAVYHGKISRETGEKLLLATGLDGSYLLRDSESVPGVYCLCVLYHGYIYTYRVSQTETGSWSAETAPGVHKRYFRKIKNLISAFQKPDQGIVIPLQYPVEKKSSARSTQGTTGIREDPDVCLKAP
B6: Lck SH2 domain without biotin (for MST) (domain or fragment)
chain: WFFKNLSRKDAERQLLAPGNTHGSFLIRESESTAGSFSLSVRDFDQNQGEVVKHYKIRNLDNGGFYISPRITFPGLHELVRHYTNASDGLCTRLSRPC

Assay in all cases: MST
Assay [1] addresses T1, Fyn SH2 domain without biotin (for MST) (UniProt P06241 149-246).
T1 chain: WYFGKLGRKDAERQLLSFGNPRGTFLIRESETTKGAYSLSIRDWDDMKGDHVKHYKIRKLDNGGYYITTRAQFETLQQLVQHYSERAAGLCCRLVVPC

Assay [2] deals with B2.
Assay [3] addresses B3.
Assay [4] has as its target B5.
Assay [5] has as its target B6.
Assay [6] concerns the target T2, phosphorylated SNAP-ADAP fusion protein (ADAP amino acids 570-690) (human, UniProt O15117 570-690, phosphotyrosine (in vitro phosphorylation by Fyn kinase, approx. 90% of each phosphorylation site; sites in Table S1); BG-647 dye on the SNAP-tag).
T2 chain: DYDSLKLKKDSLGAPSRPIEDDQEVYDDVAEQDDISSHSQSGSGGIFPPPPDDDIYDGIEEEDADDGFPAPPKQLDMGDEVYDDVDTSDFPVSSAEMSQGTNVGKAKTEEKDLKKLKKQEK

B1: phosphorylated SNAP-YEEI fusion (middle T antigen aa 315-331) (peptide)
chain: THQEEEEPQYEEIPIYL
modifications: not fully specified; also: tyrosine phosphorylation in vitro by Fyn, degree not placed
The term Kd denotes the concentration at which binding is half-saturated. Read a low Kd as a tighter complex. As to B1, the Kd stood at 430 nM in assay [1]; 128 nM in assay [2]; 189 nM in assay [3]; 2340 nM in assay [4]; 595 nM in assay [5]. In the case of B2, the dissociation constant Kd in assay [6] was found to be 142 nM.

The molecule B3 gave a Kd in assay [6] of 152 nM.

B4: SLP-76 SH2 domain without biotin (for MST) (domain or fragment)
chain: WYVSYITRPEAEAALRKINQDGTFLVRDSSKKTTTNPYVLMVLYKDKVYNIQIRYQKESQVYLLGTGLRGKEDFLSVSDIIDYFRKMPLLLIDGKNRGSRYQCTLTHAA
B4 showed a Kd in assay [6] of 457 nM.

For B5, the Kd in assay [6] turned out to be 5730 nM. On the same count and under the same terms, then B6, with 1300 nM.
